Measured values: publication PMC7655804

Target: ferroportin from Philippine tarsier (Carlito syrichta / Tarsius syrichta) (Carlito syrichta (Tarsius syrichta, Philippine tarsier))

initial rate of Co^2+ transport by TsFpn proteoliposomes with hepcidin on both inside and outside of the liposomes | initial rate of Co^2+ transport by TsFpn proteoliposomes with both hepcidin and 11F9 Fab on the external side | Substance
0.043 min⁻¹ | – | human hepcidin (peptide)
– | 0.032 min⁻¹ | human hepcidin
